The data set is described as follows: yeast display, Sf9 membrane polyspecificity reagent, FACS + sequencing; frameworks hold sequencing errors. The procedure, abridged: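 Using colony PCR, genes from sorted yeast display clones were amplified, then sequenced on MiSeq at 2 × 250 and filtered by CDR length. The clones had been stained with 10% biotinylated, detergent-solubilized Sf9 membrane reagent for 1 hour at 4 °C and sorted by FACS into low and high (top ~1%) gates on anti-HA and streptavidin fluorescence. Polyreactivity labels come from the gate of origin.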
Regarding “QVQLVESGGGLVQAGGSLRLRCAASGTTFSDNAMGWYRQAAGKERELVAAITSGGSTYYADSVKGRFTISRDNAKNTVYLQMNSLKPEDTAVYYCAADYWGQGTQVTVSS”, the “polyreactivity (PSR sort gate)” value is given as “low polyreactivity”. In the case of “QVQLVESGGGLVQAGGSLRLRCADSGFTLDVYAMGWYRQAPGKERELVAATSRSAGSTYYADSVKGRFTSSRDNAKNTVYLQMNSLKPEETDVYYCGARYPPRFGVVRGYSYYHTSTYSWGQGTQVTVSS”, the “polyreactivity (PSR sort gate)” value is “high polyreactivity”. For the sequence “QVQLVESGGGLVQAGGSLRLRGAASGNTIRYYAMGWYRQAPGKERELVAAINSRGGTTSYADSVKGRFTISRDNAKNTVYLQMNSLKPEDTAVYYCNKYIRYPFKRYGYWGQGTQVTVSS”, the “polyreactivity (PSR sort gate)” value is reported as “high polyreactivity”. As for “QVQLVESGGGLVQAGGSLRLRSAASGRTFVPYHMGCYRQAPGKERELVADISSGDSTNYTDSVKGRFTISRDNAKNTVYLQMNSLKPEDTAVYFCAADLTYTMDHWGLGTQVTVSS”, the “polyreactivity (PSR sort gate)” value is given as “low polyreactivity”. Regarding “QVQLVESGGGLVQAGGSLRLRSAATGRTYRLYAMGWYRQAPGKERELVAAITRGGRTNYADSVKGRFTISRDNAKNTVYLEMNSLKPEDTAVYYCAARYRLPIPGTQYEYWGQGTQVTVSS”, the “polyreactivity (PSR sort gate)” value is “low polyreactivity”. In the case of “QVQLVESGGGLVQAGGSLRLSCAAAGFIFQYNGMGWYRQAPGKERELVAAITSSVNTYYADSVKGRFTISRDNAKNTVYLQMNSLKPEDTAVYYCNADDPDKSWGQGTQVTVSS”, the “polyreactivity (PSR sort gate)” value was “low polyreactivity”.

As for “QVQLVESGGGLVQAGGSLRLSCAAAGIIFTGYAMGWYRQAPGKERELVAAITASGGRTYYADSVKGRYTISRDNAKNTVYLQMNSLKPEDTAVYYCNAVPTVLRVLKYDYWGQGTQVTVSS”, the “polyreactivity (PSR sort gate)” value is given as “high polyreactivity”. Under “QVQLVESGGGLVQAGGSLRLSCAAAGIISPFYAMGWYRQAPGKERELVADISTGGTTTYADSVKGRFTISRDNAKNTVYLQMNSLKPVDTAVYYCNAEVCLTYYWIVWASYDYWGQGTQVTVSS” stands “low polyreactivity”; under “QVQLVESGGGLVQAGGSLRLSCAAAGLISIRILMGWYRQAPGKERELVAGITSTGSTSYADSVKGRFTSSRDNAKNTVYLQMNSLKPEDTAVYYCNTKGSRPGIWPTTSGYWGHGTQVTVSS”, “high polyreactivity”; under “QVQLVESGGGLVQAGGSLRLSCAAAGNTIRVNAMGWYRHAHGKERELVAAISFSGGRTYYADSVKGRFTISRDNAKNTVYLQMNSLKPEDTAVYYCAALRRYPRPNIYGYWGQGTQVTVSS”, “low polyreactivity”.

On to “QVQLVESGGGLVQAGGSLRLSCAAAGRTFYNYAMGWYRQAPGKERELVAAIDWGSDSTYYADSVKGRFTISRDNAKNTVYLQMNSLKPEDTAVYYCAKRPKNKPVLGDYDHWGQGTQVTVSS”, for which the “polyreactivity (PSR sort gate)” value is “low polyreactivity”. “QVQLVESGGGLVQAGGSLRLSCAAAGSTFRYNDMGWYRQAPGKERELVAAITRSGGSTYYADSVKGRFTISRDTAKNTVYLQMNSLKPEDTAVYYCNRGLRYVLAEDIAVPRVPEYYWGQGTQVTVSS”: the “polyreactivity (PSR sort gate)” value is reported as “low polyreactivity”. For “QVQLVESGGGLVQAGGSLRLSCAACGFIFYINTMGWYRQAPGKERELVAAISQSGVGTSYADSVKGRFTISRDNAKNTVYLQMNSLKPEDTAVYDCATDFARSDVVDRFAYWRQGTQVTVSS” the value was “low polyreactivity”; for “QVQLVESGGGLVQAGGSLRLSCAACGFSFWRNAMGRTRRAPGKDRELVAAISASGGSTYYADSVKGRFTISRDNATNTVFLQRNSLKPEDTAVYYCAADTQGFYRYDYWGQGTQVTVSS”, “low polyreactivity”. In the case of “QVQLVESGGGLVQAGGSLRLSCAACGRTFFPYAIGWYRQAPGKERELVAAITTGDITNYADSVKGRFTISRDNAKNTVYLQMNSLKPEDTAVNYCAARGYASWSYGGYPLKLDYWGQGTQVTVSS”, the “polyreactivity (PSR sort gate)” value is recorded as “low polyreactivity”.

On to “QVQLVESGGGLVQAGGSLRLSCAACGSIVVGYAMGWYRQAPGKERELVAVITSDGSTNYADSVKGRFTISRDNAKHTVYLPMNSLKPEDTAVYYCAADPWLGTGRYDYWGQGTQVTVST”, for which the “polyreactivity (PSR sort gate)” value was “low polyreactivity”. Turning to “QVQLVESGGGLVQAGGSLRLSCAACGTIFRRYATGSYRQAPGKERELVAAISSGGSTYADSVKGRFTISRDNAKNTVYFQMNSLKPEDTAVYYCAAYYQLGRHPGTPNGYDYWGHGTQVTVSS”, the “polyreactivity (PSR sort gate)” value was “low polyreactivity”. Regarding “QVQLVESGGGLVQAGGSLRLSCAACVFIFSRYAMGWYRQAPGKERELVAAISRGGSTNYADSVKGRFTISRDNAKNTVYLQMNSLKPEDTAVYYCAVRQNVRYYYWGQGTQVTVSS”, the “polyreactivity (PSR sort gate)” value is on record as “high polyreactivity”. As for “QVQLVESGGGLVQAGGSLRLSCAAPGSIFYPNAMGWYRQAPGKEREFVAAITKRGGSTYYADSVKGRFTISRDNAKNTVYLQMNSLKPEDTAVYYCAGERSYPRAGRYNYWGQGTQVTVSS”, the “polyreactivity (PSR sort gate)” value is on record as “low polyreactivity”. For “QVQLVESGGGLVQAGGSLRLSCAASAFIFISYAMGLYRQAAGKERELVAAISSSGVSTYSADSVKGRFTISRDNAKNTVYLQMNSLKPEDTAVYYCAARQQVRLRQGPLYYYWGQGTQVTVSS” the value was “high polyreactivity”; for “QVQLVESGGGLVQAGGSLRLSCAASAFIFSGNAMGWNRQAPGKERELVAAISGRGGRTYYADSVKGRFTISRDNAKNTVYLQMNSLKPEDTAVYYCAADNPYLGRKFDYWGQGTQVTVSS”, “high polyreactivity”. Under “QVQLVESGGGLVQAGGSLRLSCAASAFTFRYNAMGWYRQAPGKERELVATIDWSGGRTYYADSVKGRFTISRDNAKNTVYLQMNSLKPEDTAVYYCNAAALFRYYVRWKSAYDYWGQGTQVTVSS” stands “high polyreactivity”. For “QVQLVESGGGLVQAGGSLRLSCAASAFTLLSYAMGWYRQAPGKDRELVASITQRGGSTYYADSVKGRFTISRDNAKNTVDLQMNSLKPEDTAVYYCAARSGYGYRYYYWGQGTQVTVSS” the value was “low polyreactivity”; for “QVQLVESGGGLVQAGGSLRLSCAASAGIFRYYAMGWYRQAPGKERELVAAITSSGTSTYYADSVKGRFTISRDNAKNTVYLQMNSLKPEDTAVYYCAATRTKRKFDYWGQGTQVTVSS”, “high polyreactivity”; for “QVQLVESGGGLVQAGGSLRLSCAASAIIFAQYTMGWNRQAPGKERELVAAINRNGGSTYYADSVKGRFTISRDNAKNTVYLQMNSLKPEDTAVYYCNADALGFRYDYWGQGTQVTVSS”, “low polyreactivity”. With “QVQLVESGGGLVQAGGSLRLSCAASAITFFNNAMGWYRPATGKERELVADITYSGSTYYADSVKGRFTISRDNAQNSVYLQMNSLKPEDTAVYYCSAGHAYDYFVYYPDDYWGQGTQVTVSS”, the “polyreactivity (PSR sort gate)” value is “low polyreactivity”. Under “QVQLVESGGGLVQAGGSLRLSCAASAITYAYYPMGWYRQAPGKETELVAGITDVGSTNYADSVKGRFTLSRDNAKNTVYLQMNSLKPEDTAGYYCAAEYDGPYYSFYPEQRYYWGQGTQVTVSS” stands “low polyreactivity”. In the case of “QVQLVESGGGLVQAGGSLRLSCAASARIQDKYARGWYRQAPGKERELVARIRFSGGDTYADSVKGRFTISRDNAKNTVYLQMNSLKPEDTAVYYCNKDRRNRWYAFDYWGQGTQVTVSS”, the “polyreactivity (PSR sort gate)” value is “low polyreactivity”. For “QVQLVESGGGLVQAGGSLRLSCAASARNFYANVMGWYRQAPGKEREFVAAIRWSGGRTYYADSVKGRFTISRDNAKNTVYLQMNSLKPEDTAVYYCAADPWDYISYYIYDYWGQGTQVTVSS”, the “polyreactivity (PSR sort gate)” value is given as “low polyreactivity”.

With “QVQLVESGGGLVQAGGSLRLSCAASARTFGVYAMGWYRQAPGKERELVAAISKSDGSTYYADSVKGRFTISRDNAKITVYLQMNSLKPEDTAVYYCATVTLHQRDTQDDFWGQGTQVTVSS”, the “polyreactivity (PSR sort gate)” value is recorded as “low polyreactivity”.

As to “QVQLVESGGGLVQAGGSLRLSCAASARTFYRYAMGWYRQAPGKERELVAAITRRSGNTYYADSVKGRFTISRDNAKNTVYLQMNSLKPEDTAVYYFNTVYPRRLIFGYWGQGTQVTVSS”, the “polyreactivity (PSR sort gate)” value is listed as “high polyreactivity”. As for “QVQLVESGGGLVQAGGSLRLSCAASASIFLEYAMGWYRQAPGKERELVAGITISGGSTYYADSVKGRFTISRDNAKNTVYLQMNSLKPEDSAVYYCAKVAPRSSSSLEYYYWGQGTQVTVSS”, the “polyreactivity (PSR sort gate)” value is recorded as “low polyreactivity”.

Consider “QVQLVESGGGLVQAGGSLRLSCAASASIFPRNTMGWYRPAPGKERELVAAISRSGGSTYYADSVKGRFTISRDNAKNTVYLQMNSLKPEDTAVYYCAVSGGTSRRYYYWGQGTQVTVSS”, for which the “polyreactivity (PSR sort gate)” value is given as “high polyreactivity”. Under “QVQLVESGGGLVQAGGSLRLSCAASASIFSVYAMGWYRQAPGKERELVAAITRSGARTYYADSVKGRFTISRDNAKNTVYLQMNSLKPDDTAVYYCAADDPGYNQVEYWGQGTQVTVSS” stands “high polyreactivity”. Under “QVQLVESGGGLVQAGGSLRLSCAASASTFRPYAMGWFRQAPGKEREFVASITWRGGGTYYADSVKGRFTISRDNAKNTVYLQMNSLKPEDTAVFSCAAATQVRGNSLPYGYWGQGTQVTVSS” stands “high polyreactivity”; under “QVQLVESGGGLVQAGGSLRLSCAASASTFVSNAMGWYRQAPGKERELVAAISKSGGSTYYADSVKGRFTISRDNAKNTVYLEMNSLKPEDTAVYYCSKYTAISFYGQYDYWGQGTQVTVSS”, “high polyreactivity”. Turning to “QVQLVESGGGLVQAGGSLRLSCAASATFYYYAMGWSRQAPGKERELVAAISYSGGRTYYADSVKGRFTISRDNAKNTVYLQMNSLKPEDTAVYYCNALYRKTPSYGADDYWGQGTQVTVSS”, the “polyreactivity (PSR sort gate)” value is given as “high polyreactivity”.

As to “QVQLVESGGGLVQAGGSLRLSCAASAWYAMGWYRQAPGKEREFVAAITFSGSSTYYADSVKGRFTISRDNAKNTVYLQMNSLKPEDTAVYYCNADWWEWGQGTQVTVSS”, the “polyreactivity (PSR sort gate)” value is “low polyreactivity”. On to “QVQLVESGGGLVQAGGSLRLSCAASGAIFVPYAMGWYRQAPGKERELVAAITYSDGSTYYADSVKGRFTISRDNAKNTVYLQMNSLKPEDTAVYYCAAEWIEFPDPVSWYYYTPYYYWGQGTQVTVSS”, for which the “polyreactivity (PSR sort gate)” value is “high polyreactivity”. For the sequence “QVQLVESGGGLVQAGGSLRLSCAASGATFGYYGMGWYRQAHGTERELVAAISTRGDSTYYADSVMGRFTISRDNAKNPVYLQMHSLKPEDPAGYYCAKSRQSSGRVRFDYWGQGTQVTVSS”, the “polyreactivity (PSR sort gate)” value is “low polyreactivity”. As for “QVQLVESGGGLVQAGGSLRLSCAASGATFTFYAMGWYRQAPGKERELVATINWSGGSTYYADSVKGRFTISRDNSKYTVYLQMNSMKPEDTAVFYCNAACPFKSVEYWGQGTQVTVSS”, the “polyreactivity (PSR sort gate)” value is “low polyreactivity”.

(Values after the nanobody polyreactivity screen of Harvey et al. (2022).)
